Measurements as given in patent publication US20200199231A1 (Genmab, published 2020).
Changes are numbered by the printed parent chain.

T1: human CD20 (human, UniProt P11836 1-297)
T1 construct: whole, on cells; On Daudi and other human B cell lines, on human B cells in blood, or transiently expressed in HEK293F cells (construct pEE12.4CD20HS-GA); also called wild type CD20; WT CD20
T1 sequence (looked up): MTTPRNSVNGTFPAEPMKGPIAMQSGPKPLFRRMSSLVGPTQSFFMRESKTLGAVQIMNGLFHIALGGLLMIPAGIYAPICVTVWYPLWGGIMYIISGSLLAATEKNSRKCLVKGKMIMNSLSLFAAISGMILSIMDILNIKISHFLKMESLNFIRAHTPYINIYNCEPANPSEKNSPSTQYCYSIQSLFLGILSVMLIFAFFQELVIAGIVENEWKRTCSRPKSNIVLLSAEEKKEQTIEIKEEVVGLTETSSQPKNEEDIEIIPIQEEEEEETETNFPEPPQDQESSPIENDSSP

T2: CD20-AxP (human, UniProt P11836 1-297)
T2 construct: whole, on cells; Transiently expressed in HEK293F cells; also called AxP mutant; CD20 mutant (CD20-AxP)
T2 sequence (looked up): T1 sequence (looked up) with A170S, P172S

T3: CD20 KDD mutant (human, UniProt P11836 1-297)
T3 construct: whole, on cells; Transiently expressed in HEK293F cells; also called T159K/N163D/N166D
T3 sequence (looked up): T1 sequence (looked up) with T159K, N163D, N166D

B1: IgG1-11B8 (antibody, V domains shown)
VH: EVQLVQSGGGLVHPGGSLRLSCTGSGFTFSYHAMHWVRQAPGKGLEWVSIIGTGGVTYYADSVKGRFTISRDNVKNSLYLQMNSLRAEDMAVYYCARDYYGAGSFYDGLYGMDVWGQGTTVTVSS
VL: EIVLTQSPATLSLSPGERATLSCRASQSVSSYLAWYQQKPGQAPRLLIYDASNRATGIPARFSGSGSGTDFTLTISSLEPEDFAVYYCQQRSDWPLTFGGGTKVEIK
notes: Monospecific, bivalent IgG1
B2: bsIgG1-huCD3-H1L1-FEALxCD20-2C6-FEAR (bispecific antibody)
heavy 1: not shown
light: not shown
heavy 2: AVQLVESGGGLVQPGRSLRLSCAASGFTFGDYTMHWVRQAPGKGLEWVSGISWNSGSIGYADSVKGRFTISRDNAKNSLYLQMNSLRAEDTALYYCTKDNQYGSGSTYGLGVWGQGTLVTVSSASTKGPSVFPLAPSSKSTSGGTAALGCLVKDYFPEPVTVSWNSGALTSGVHTFPAVLQSSGLYSLSSVVTVPSSSLGTQTYICNVNHKPSNTKVDKRVEPKSCDKTHTCPPCPAPEFEGGPSVFLFPPKPKDTLMISRTPEVTCVVVAVSHEDPEVKFNWYVDGVEVHNAKTKPREEQYNSTYRVVSVLTVLHQDWLNGKEYKCKVSNKALPAPIEKTISKAKGQPREPQVYTLPPSREEMTKNQVSLTCLVKGFYPSDIAVEWESNGQPENNYKTTPPVLDSDGSFFLYSRLTVDKSRWQQGNVFSCSVMHEALHNHYTQKSLSLSPGK
VL: B1 VL with D93N
notes: also called CD3x2C6; huCD3x2C6
B3: IgG1-7D8 (antibody, V domains shown)
VH: EVQLVESGGGLVQPDRSLRLSCAASGFTFHDYAMHWVRQAPGKGLEWVSTISWNSGTIGYADSVKGRFTISRDNAKNSLYLQMNSLRAEDTALYYCAKDIQYGNYYYGMDVWGQGTTVTVSS
VL: B1 VL with D93N, L96I, G100Q, K103R, V104L
notes: Monospecific, bivalent IgG1
B4: bsIgG1-huCLB-T3/4-FEALxCD20-7D8-FEAR (bispecific antibody)
heavy 1: EVQLVESGGGLVKPGGSLRLSCAASGFTFSSYGMFWVRQAPGKGLEWVATISRYSRYIYYPDSVKGRFTISRDNAKNSLYLQMNSLRAEDTAVYYCARRPLYGSSPDYWGQGTLVTVSSASTKGPSVFPLAPSSKSTSGGTAALGCLVKDYFPEPVTVSWNSGALTSGVHTFPAVLQSSGLYSLSSVVTVPSSSLGTQTYICNVNHKPSNTKVDKRVEPKSCDKTHTCPPCPAPEFEGGPSVFLFPPKPKDTLMISRTPEVTCVVVAVSHEDPEVKFNWYVDGVEVHNAKTKPREEQYNSTYRVVSVLTVLHQDWLNGKEYKCKVSNKALPAPIEKTISKAKGQPREPQVYTLPPSREEMTKNQVSLTCLVKGFYPSDIAVEWESNGQPENNYKTTPPVLDSDGSFLLYSKLTVDKSRWQQGNVFSCSVMHEALHNHYTQKSLSLSPGK
VL 1: EIVLTQSPATLSLSPGERATLSCSASSSVTYVHWYQQKPGQAPRLLIYDTSKLASGIPARFSGSGSGTDFTLTISSLEPEDFAVYYCFQGSGYPLTFGSGTKLEMR
heavy 2: EVQLVESGGGLVQPDRSLRLSCAASGFTFHDYAMHWVRQAPGKGLEWVSTISWNSGTIGYADSVKGRFTISRDNAKNSLYLQMNSLRAEDTALYYCAKDIQYGNYYYGMDVWGQGTTVTVSSASTKGPSVFPLAPSSKSTSGGTAALGCLVKDYFPEPVTVSWNSGALTSGVHTFPAVLQSSGLYSLSSVVTVPSSSLGTQTYICNVNHKPSNTKVDKRVEPKSCDKTHTCPPCPAPEFEGGPSVFLFPPKPKDTLMISRTPEVTCVVVAVSHEDPEVKFNWYVDGVEVHNAKTKPREEQYNSTYRVVSVLTVLHQDWLNGKEYKCKVSNKALPAPIEKTISKAKGQPREPQVYTLPPSREEMTKNQVSLTCLVKGFYPSDIAVEWESNGQPENNYKTTPPVLDSDGSFFLYSRLTVDKSRWQQGNVFSCSVMHEALHNHYTQKSLSLSPGK
VL 2: B1 VL with D93N, L96I, G100Q, K103R, V104L
notes: also called huCLB-T3/4x7D8; bsIgG1-huCLB-3/4-FEALxCD20-7D8-FEAR
B5: bsIgG1-huCLB-T3/4-FEALxCD20-2F2-FEAR (bispecific antibody)
heavy 1: B4 heavy 1
VL 1: B4 VL 1
heavy 2: B4 heavy 2 with D15G, H30N, T57S, N77K
VL 2: B1 VL with D93N, L96I, G100Q, K103R, V104L
notes: also called huCLB-T3/4x2F2; bsIgG1-huCLB-3/4-FEALxCD20-2F2-FEAR

Columns and labels:
human CD20 [1] = target: T1, human CD20; experiment: flow cytometry on Daudi cells (CD20-positive, CD3-negative); PE-conjugated goat anti-human IgG F(ab')2; geomean (PE)
Protocol: (§1) In addition to the non-activating mutations, L234F, L235E, D265A, on both arms, the bispecific antibody contained an F405L mutation on one arm and a K409R mutation on the other arm.
(§2) Cells (1×10⁵ cells/well) were incubated in polystyrene 96-well round-bottom plates (Greiner bio-one, cat. no. 650101) with serial dilutions of antibodies (range 0.041 to 30 μg/mL in 3-fold dilution steps [A-E] and 0.00061 to 10 μg/mL in 4-fold dilution steps [F-I]) in 100 μL PBS/0.1% BSA/0.02% azide (from here designated as staining buffer) at 4° C. for 30 min.
(§3) After washing twice in staining buffer, cells were incubated in 50 μL secondary antibody at 4° C. for 30 min. As a secondary antibody, R-Phycoerythrin (PE)-conjugated goat-anti-human IgG F(ab′)₂ (cat. no. 109-116-098, Jackson ImmunoResearch Laboratories, Inc., West Grove, Pa.) diluted 1:200 in staining buffer, was used for all experiments. Next, cells were washed twice in staining buffer, re-suspended in 30 μL staining buffer and analyzed on an iQue screener (Intellicyt Corporation, USA) (for FIG. 1A-E) or re-suspended in 100 μL staining buffer and analyzed on a FACSCANTOII (BD Biosciences) (FIG. 1F-I). Binding curves were analyzed using non-linear regression (sigmoidal dose-response with variable slope) using GraphPad Prism V75.04 software (GraphPad Software, San Diego, Calif., USA).

human CD20 [2] = target: T1, human CD20; experiment: flow cytometry on HEK293F cells transiently expressing wild type CD20; PE-conjugated goat anti-human IgG F(ab')2; MFI
Protocol: (§4) PCR was performed on a Tgradient Thermocycler 96 (Biometra) using a 35 cycle program of: +95° C. for 15 min, followed by 35 cycles of: +94° C. for 30 sec, anneal: 55° C. for 30 sec and extension: +72° C. for 2 min, followed by a final extension step at 72° C. for 10 min and subsequent storage at 4° C. The completed reactions were analyzed by agarose gel electrophoresis. See Table 11 for details of primer pairs used for colony PCR. DNA sequencing: Plasmid DNA samples were send to AGOWA (Berlin, Germany) for sequence analysis. Sequences were analyzed using the VectorNTI software package (Informax, Frederick, Md., USA).
(§5) Mutagenesis: The mutagenesis was performed, using the QuikChange® XL Site-Directed Mutagenesis kit (Cat 200517-5, Lot 1120630, Stratagene Europe) according to the manufacturer's instructions. Mutagenesis reactions were concentrated using ethanol precipitation and transformed into either oneshot DH5α-TIR competent E. coli cells or electroporated into ElectroTen-Blue® Electroporation-Competent Cells. Colonies were checked by colony PCR and restriction digestion prior to transfection. […] Anti-CD20 Antibody binding: HEK293F cells were taken up in staining buffer (PBS supplemented with 0.1% BSA and 0.02% NaN₃) and added to round bottom plates (1-3×10⁵/well in 100 μL). […] After washing twice in staining buffer, cells were incubated in 50 μL secondary antibody at 4° C. for 30 min. As a secondary antibody, R-Phycoerythrin (PE)-conjugated goat-anti-human IgG F(ab′)₂ was used, as described supra. Next, cells were washed once in staining buffer, re-suspended in 150 μL staining buffer and analyzed on a flow cytometer (FACSCanto-720, Becton Dickinson, San Diego, Calif., USA) and 10,000 events per sample were acquired at high flow rate. Binding curves were analyzed using non-linear regression (sigmoidal dose-response with variable slope) using GraphPad Prism V75.04 software (GraphPad Software, San Diego, Calif., USA).

CD20-AxP [3] = target: T2, CD20-AxP; experiment: flow cytometry, HEK293F transfectants, MFI mutant/MFI wt at 10 µg/mL
Protocol: (§6) As a secondary antibody, R-Phycoerythrin (PE)-conjugated goat-anti-human IgG F(ab′)₂ was used, as described supra. Next, cells were washed once in staining buffer, re-suspended in 150 μL staining buffer and analyzed on a flow cytometer (FACSCanto-720, Becton Dickinson, San Diego, Calif., USA) and 10,000 events per sample were acquired at high flow rate. Binding curves were analyzed using non-linear regression (sigmoidal dose-response with variable slope) using GraphPad Prism V75.04 software (GraphPad Software, San Diego, Calif., USA).
(§7) Numbers indicate the percentage of binding to the CD20 mutants, relative to binding to wild type CD20, at 10 μg/mL. The percentage of binding was calculated by the following formula: (MFI binding to CD20 mutant)/(MFI binding CD20 wt) × 100%

CD20 KDD mutant [4] = target: T3, CD20 KDD mutant; experiment: as above
Protocol: as §6, §7

CD20 KDD mutant [5] = target: T3, CD20 KDD mutant; experiment: flow cytometry, HEK293F cells expressing CD20 KDD mutant
Protocol: as §4, §5

human CD20 [6] = target: T1, human CD20; experiment: flow cytometry on Daudi cells (CD20-positive, CD3-negative); PE-conjugated goat anti-human IgG F(ab')2; median FI (PE)
Protocol: as §1, §2, §3

human CD20 [7] = target: T1, human CD20; experiment: as above; remark: listed apart in the source
Protocol: as §1, §2, §3

CD20-AxP [8] = target: T2, CD20-AxP; experiment: flow cytometry on HEK293F cells transiently expressing CD20-AxP (A170S/P172S); PE-conjugated goat anti-human IgG F(ab')2; MFI
Protocol: as §4, §5

human CD3 = target: T4, human CD3 (human, UniProt P07766 22-207); experiment: flow cytometry on Jurkat cells (CD3-positive, CD20-negative); PE-conjugated goat anti-human IgG F(ab')2; median FI (PE)
T4 construct: CD3 as part of the TCR complex on Jurkat cells or human T cells; also called human CD3ε (epsilon)
T4 sequence (P07766 22-207 limits assumed): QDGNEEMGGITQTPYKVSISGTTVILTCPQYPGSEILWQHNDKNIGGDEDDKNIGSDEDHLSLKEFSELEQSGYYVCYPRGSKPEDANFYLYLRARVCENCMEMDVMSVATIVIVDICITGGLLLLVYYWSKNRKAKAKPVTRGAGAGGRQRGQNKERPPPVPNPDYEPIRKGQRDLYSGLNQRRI
Protocol: as §1, §2, §3

| Binder | EC50 (read off the curve) (human CD20 [1]) | EC50 (read off the curve) (human CD20 [2]) | % of wt CD20 binding (CD20-AxP [3]) | % of wt CD20 binding (CD20 KDD mutant [4]) | binding result (CD20 KDD mutant [5]) | EC50 (read off the curve) (human CD20 [6]) | EC50 (read off the curve) (human CD20 [7]) | EC50 (read off the curve) (CD20-AxP [8]) | EC50 (read off the curve) (human CD3) |
| --- | --- | --- | --- | --- | --- | --- | --- | --- | --- |
| B1 | ~2 µg/mL |  |  |  |  |  |  |  |  |
| B2 |  | ~0.1 µg/mL | 92% | 3% | no binding (tested: 0.0015-10 µg/mL) | ~0.9 µg/mL |  |  |  |
| B3 | ~0.6 µg/mL |  |  |  |  |  |  |  |  |
| B4 |  | ~0.1 µg/mL | 113% | 3% | no binding (tested: 0.0015-10 µg/mL) |  | ~0.8 µg/mL | ~0.2 µg/mL | ~0.1 µg/mL |
| B5 |  | ~0.1 µg/mL | 112% | 5% | no binding (tested: 0.0015-10 µg/mL) |  | ~0.3 µg/mL | ~0.2 µg/mL | ~0.06 µg/mL |
